Experimental data taken from doi:10.1101/2023.11.21.568018 (bioRxiv, 2023).

Molecular target: phospho-NEDD8 (human (cDNA from HEK393T cells), UniProt Q15843 1-76, phosphoserine at 65)
Assay: crystal structure

Binder	binding result
human Parkin R0RBR (141-465) (domain or fragment) SIYNSFYVYCKGPCQRVQPGKLRVQCSTCRQATLTLTQGPSCWDDVLIPNRMSGECQSPHCPGTSAEFFFKCGAHPTSDKETSVALHLIATNSRNITCITCTDVRSPVLVFQCNSRHVICLDCFHLYCVTRLNDRQFVHDPQLGYSLPCVAGCPNSLIKELHHFRILGEEQYNRYQQYGAEECVLQMGGVLCPRPGCGAGLLPEPDQRKVTCEGGNGLGCGFAFCRECKEAYHEGECSAVFEASGTTTQAYRVDERAAEQARWEAASKETIKKTTKPCPRCHVPVEKNGGCMHMKCPQPQCRLEWCWNCGCEWNRVCMGDHWFDV	binds
human Parkin R0RBR K211N (141-465) (domain or fragment) SIYNSFYVYCKGPCQRVQPGKLRVQCSTCRQATLTLTQGPSCWDDVLIPNRMSGECQSPHCPGTSAEFFFNCGAHPTSDKETSVALHLIATNSRNITCITCTDVRSPVLVFQCNSRHVICLDCFHLYCVTRLNDRQFVHDPQLGYSLPCVAGCPNSLIKELHHFRILGEEQYNRYQQYGAEECVLQMGGVLCPRPGCGAGLLPEPDQRKVTCEGGNGLGCGFAFCRECKEAYHEGECSAVFEASGTTTQAYRVDERAAEQARWEAASKETIKKTTKPCPRCHVPVEKNGGCMHMKCPQPQCRLEWCWNCGCEWNRVCMGDHWFDV	binds
